Measurements from patent US20160185837A1 (Medimmune Limited, priority 2013, published 2016).

T1: hGIPr (C3) (Homo sapiens, UniProt P48546)
T1 construct: expressed in transfected cells
T1 sequence (P48546 22-466): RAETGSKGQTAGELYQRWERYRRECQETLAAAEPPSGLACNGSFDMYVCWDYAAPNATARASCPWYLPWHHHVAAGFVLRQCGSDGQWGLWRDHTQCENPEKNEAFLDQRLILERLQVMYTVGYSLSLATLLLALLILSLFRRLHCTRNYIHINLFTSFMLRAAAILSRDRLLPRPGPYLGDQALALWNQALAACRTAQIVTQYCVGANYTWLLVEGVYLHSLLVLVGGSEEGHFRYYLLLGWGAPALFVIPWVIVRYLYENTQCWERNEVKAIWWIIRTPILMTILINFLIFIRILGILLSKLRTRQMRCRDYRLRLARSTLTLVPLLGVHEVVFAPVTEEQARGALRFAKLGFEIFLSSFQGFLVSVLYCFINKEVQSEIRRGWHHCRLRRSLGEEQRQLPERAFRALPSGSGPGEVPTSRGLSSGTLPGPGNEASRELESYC

B1: IP367 (protein)
chain: YSEGTFTSDYRILKERQAIDEFIAWLLKGGAAAGGSGSTASSGSGSATGGGGAATHTCPPC
B2: IP088: Fc fusion, IgG1-TM, SEQ ID NO:105; agonist peptide YSEGTFTSDYSKLLEEEAVRLFIEWLVKGP (SEQ ID NO:15) (protein)
chain: YSEGTFTSDYSKLLEEEAVRLFIEWLVKGPAAAGGSGSTASSGSGSATGGGGAATHTCPPCPAPEF
modifications: also: Fc fusion, IgG1-TM

Legend:
hGIPr (C3) = target: T1, hGIPr (C3); assay: BSA-cAMP assay, second human GIPr cell line hGIPr (C3); format: cell-based; details: Batch 1, second hGIPr cell line, read-out: hGIPr (C3) cAMP activity EC50
Experimental: For human GIPr, two different lines were used, shown as “hGIPr” and “hGIPr (C3)” in Table 11. Peptide activation of these various receptors results in downstream production of cAMP second messenger that can be measured in a functional activity assay.
One basic cAMP assays was performed, differing in the medium used for the assay, the “BSA-cAMP assay”:
BSA-based assay medium: 0.1% bovine serum albumin (BSA) in
Hanks Balanced Salt Solution (GIBCO or Sigma), containing 0.5 mM IBMX (Sigma #17018);
In certain aspects, the assay can also be carried out in medium supplemented with serum albumin that corresponds to the receptor being tested, e.g., human serum albumin for testing cAMP activity at hGIPr or hGLP-1r, rat serum albumin for testing cAMP activity at rGIPr or rGLP-1r, and so on. […]
cAMP levels were measured using a commercially available cAMP dynamic 2 HTRF kit (Cisbio, Cat #62AM4PEJ), following the two step protocol as per manufacturer's recommendations. […] Plates were incubated at room temperature for one hour and then read on an Envision (Perkin Elmer) using excitation wavelength of 320 nm and emission wavelengths of 620 nm & 665 nm. Data was transformed to % Delta F as described in manufacturer's guidelines and then transformed to percent activation of maximal native agonist response and analysed by 4-parameter logistic fit to determine EC50 values. […]

PK by Fc Detection = assay: PK by Fc Detection
Experimental: Table printed on a drawing sheet, FIG. 3A-C
Title: PK by Fc Detection
(§1) Circles: IV injection of 1 mg/kg, squares: subcutaneous injection of 1 mg/kg. Pharmacokinetic parameters Cmax, bioavailability (F %) and half-life T1/2 are compared in panel C.
(§2) Circles: IV injection of 1 mg/kg, squares: subcutaneous injection of 1 mg/kg. Pharmacokinetic parameters Cmax, bioavailability (F %) and half life T112 are compared in panel F.
First reader's note: Panel C of FIG. 3A-C; the title 'PK by Fc Detection' is printed over the whole sheet, including plot panels A and B.

blood glucose = assay: Oral glucose tolerance test (OGTT) in mouse model; format: in vivo, C57 male mice
Experimental: The effect of IP088 on glycemic control in a mouse model was carried out as follows. Twenty-one (21) male C57 male mice (11-12 weeks old) were purchased from Taconic, Denmark and acclimatized for 3 weeks before experimentation. Throughout the acclimatization period the animals are offered ad libitum chow and tap water. Mice were single housed one week prior to the study. On day 1 of the study animals were randomized into 4 groups based on body weight (n=5-6 per group), and were administered the following compounds subcutaneously four hours (IP088, IP040, and GLP1a-Fc) or two hours (liraglutide) prior to each oral glucose tolerance test:
Group 6: Liraglutide (GLP-1 analog, Novo Nordisk) 0.2 mg/kg S.C.
Group 7: GLP1a-Fc (GLP-1 agonist) 1 mg/kg S.C.
Group 8: IP088 1 mg/kg S.C.
Oral glucose tolerance tests (OGTT) were performed on days 0 and 2, both after a 4-hour fast. […] Blood glucose was measured from tail vein blood before glucose (at t=−240, −120 and 0 min, baseline) and after glucose administration at t=15, 30, 60 and 120 min. Blood samples (tail vein) were collected into […] heparinized glass capillary tubes and immediately suspended in buffer (0.5 ml of glucose/lactate system solution (EKF-diagnostics, Germany) and analyzed for glucose on the test day using a BIOSEN c-Line glucose meter (EKF-diagnostics, Germany) according to manufacturer's instructions.

PK by Activity = assay: PK by Activity
Experimental: Table printed on a drawing sheet, FIG. 3D-F
as §1, §2
First reader's note: Panel F of FIG. 3D-F; the pharmacokinetic parameters were derived from plasma levels measured by activity (sheet heading 'PK by Activity').

| EC50 (hGIPr (C3)) | Molecule | Cmax (PK by Fc Detection) | F (%) (PK by Fc Detection) | t½ (PK by Fc Detection) | glycemic control in OGTT compared with GLP1a-Fc, in words (blood glucose; 1 mg/kg S.C. each, OGTT days 0 and 2) | glucose lowering effect in OGTT, in words (blood glucose; 1 mg/kg S.C. four hours before OGTT, days 0 and 2, 2 g/kg oral glucose) | Cmax (PK by Activity) | F (%) (PK by Activity) | t½ (PK by Activity) |
| --- | --- | --- | --- | --- | --- | --- | --- | --- | --- |
| 13 nM | B1 | – | – | – | – | – | – | – | – |
| – | B2 | 9800 ng/mL | 67% | 71 h | superior to GLP1a-Fc at glycemic control | excellent glucose lowering effects | 98 nM | 72% | 24 h |
